Ends that are not written are not given here.
B1: Ssb1 (wild type, recombinant) (natural protein)
chain: not shown
notes: Hsp70 Ssb1 of Saccharomyces cerevisiae, wild type, expressed as His6-Smt3-Ssb1 and cleaved with Ulp1; The nucleotide state was set by pre-treatment with ATP (SsbATP) or apyrase (SsbADP) in one experiment; also called wt Ssb1; full length Ssb1; source: E. coli BL21(DE3)*/pRARE, purified (Ni-IDA, Ulp1 cleavage, Resource Q anion exchange); not shown: His6, N-terminal, cleaved; Smt3, N-terminal, …
B2: APPY peptide (biotinylated) (peptide)
peptide: SALLQSRLLLSAPRRAAATARYC
modifications: also: biotinylated, position not given here
notes: canonic Hsp70 substrate peptide APPY
B3: IAANS-labelled peptide σ32-Q132-Q144-C (peptide)
peptide: QRKLFFNLRKTKQC
modifications: also: IAANS label, position not given here
notes: sigma-32 (heat shock sigma factor RpoH), residues Q132-Q144; The unlabelled peptide was used in 100-fold excess as the chase in the release assay; also called model peptide

Experiments:
Conditions in all cases: both partners purified
[1] = molecular target: B2; assay: SEC; as a1, but Ssb pre-incubated with apyrase (SsbADP) before the peptide was added, compared with Ssb pre-incubated with ATP (SsbATP) and treated with apyrase after the peptide; shifted APPY signals quantified
[2] = molecular target: B1; assay: SEC; 2 uM biotinylated peptide incubated 30 min at RT with 4 uM purified Ssb1 in Ssb buffer (30 mM HEPES KOH pH 7.4, 50 mM KAc, 5 mM MgCl2, 1 mM beta-mercaptoethanol), then apyrase for 1 h; Superose 12; fractions dot-blotted, peptide detected with StrepTactin-HRP and Ssb with antibody
[3] = molecular target: T1, Ssb1Δ601–13 (recombinant) (S. cerevisiae, UniProt P11484 1-600); assay: as above
T1 construct: Purified as the wild type ('His6-Smt3-Ssb1 construct (or mutations thereof)'); also called mutant Ssb1; source: E. coli BL21(DE3)*/pRARE, purified (Ni-IDA, Ulp1 cleavage, Resource Q anion exchange); not shown: His6, N-terminal, cleaved; Smt3, N-terminal, cleaved

[4] = molecular target: B1; assay: fluorescence polarisation; fluorescence anisotropy; Ssb1 wt or mutant (10 uM in the methods; titrated up to 100 uM in the text) with 1 uM IAANS-labelled peptide in HKM buffer (25 mM HEPES, 150 mM KCl, 5 mM MgCl2, 1 mM DTT, 10% glycerol), 1.5 h at 30 °C
[5] = molecular target: T1, Ssb1Δ601–13 (recombinant); assay: as above

T1 sequence (P11484 1-600, stated change not applied): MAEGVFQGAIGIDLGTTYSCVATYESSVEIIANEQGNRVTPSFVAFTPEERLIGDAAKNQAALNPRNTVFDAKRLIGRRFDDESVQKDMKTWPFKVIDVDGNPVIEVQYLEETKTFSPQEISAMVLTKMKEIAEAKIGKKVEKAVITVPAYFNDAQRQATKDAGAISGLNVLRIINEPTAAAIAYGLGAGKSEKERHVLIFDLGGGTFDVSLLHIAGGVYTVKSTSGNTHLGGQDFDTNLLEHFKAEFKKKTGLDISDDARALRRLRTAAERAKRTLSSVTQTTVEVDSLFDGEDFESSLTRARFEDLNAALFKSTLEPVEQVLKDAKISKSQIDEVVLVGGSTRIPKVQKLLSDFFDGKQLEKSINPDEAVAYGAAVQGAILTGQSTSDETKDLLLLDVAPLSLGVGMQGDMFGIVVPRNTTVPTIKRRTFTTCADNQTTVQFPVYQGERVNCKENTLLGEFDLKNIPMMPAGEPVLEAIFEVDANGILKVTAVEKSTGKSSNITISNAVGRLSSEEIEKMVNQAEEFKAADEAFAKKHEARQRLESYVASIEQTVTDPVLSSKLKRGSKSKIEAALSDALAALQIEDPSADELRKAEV

Binder: B1
- shifted APPY signal of SsbADP relative to SsbATP [1]: 71%

Binder: B2
- binding result [2]: binds
- binding result [3]: binds

Binder: B3
- binding result [4]: binds
- binding result [5]: binds
